Test results from patent US20240336686A1 (ELPISCIENCE SUZHOU BIOPHARMA, published 2024).
Where a chain is given by its changes, count along the chain named. Names may count otherwise.

T1: human Claudin18.2 protein (Octet assay) (human, UniProt P56856-2 1-261, limits assumed)
T1 construct: UniProt P56856 isoform A2 corresponds to Claudin18.2; also called CLDN18.2
T1 sequence (looked up): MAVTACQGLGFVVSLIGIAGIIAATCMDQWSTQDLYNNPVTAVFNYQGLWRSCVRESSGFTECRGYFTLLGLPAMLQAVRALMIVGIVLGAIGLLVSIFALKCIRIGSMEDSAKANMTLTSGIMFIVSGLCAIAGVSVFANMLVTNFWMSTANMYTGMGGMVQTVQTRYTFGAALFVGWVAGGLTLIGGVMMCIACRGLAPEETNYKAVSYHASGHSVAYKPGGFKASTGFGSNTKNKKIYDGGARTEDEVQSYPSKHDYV

B1: Humanized anti-SIRPα antibody hu025.021 (antibody, V domains shown)
VH: EVQLVQSGAEVKKPGATVKISCKVSGFNIKDYYMHWVQQAPGKGLEWIGRIDPEDAETKYAPKFQGRVTITADTSTNTAYMELSSLRSEDTAVYYCDRGLAYWGQGTLVTVSS
VL: EIVLTQSPATLSLSPGERATLSCSASSSVSSSYLYWYQQKPGQAPKLWIYSTSNLASGIPARFSGSGSGTDYTLTISSLEPEDFAVYYCHQWSSYPYTFGQGTKLEIK
notes: Humanized from C25
B2: Humanized anti-SIRPα antibody hu025.059 (antibody, V domains shown)
VH: B1 VH with V24A
VL: B1 VL
notes: Humanized from C25
B3: Humanized anti-SIRPα antibody hu025.033 (antibody, V domains shown)
VH: B1 VH with N77D
VL: B1 VL
notes: Humanized from C25
B4: Anti-Claudin18.2 antibody hu26.H1L2 (S92A) (antibody, V domains shown)
VH: EVQLLESGGGLVQPGGSLRLSCAASGFTLSSYALSWVRQAPGKGLEWVSYISNLGGSTFYPDTVKGRFTISRDNSKNTLYLQMNSLRAEDTAVYYCAKHLYNYDAFASWGQGTLVTVSS
VL: DIQLTQSPSFLSASVGDRVTITCRASSSVNYIHWYQQKPGKAPKALIYATSNLASGVPSRFSGSGSGTEYTLTISSLQPEDFATYYCQQWNANPLTFGQGTKLEIK
notes: Humanized monoclonal antibody; also called Anti-Claudin18.2, hu26.H1L2 (S92A)
B5: Anti-Claudin18.2 antibody hu28.H1L2 (antibody, V domains shown)
VH: QVQLVQSGAEVKKPGASVKVSCKASGYTFTNWVHWVRQAPGQGLEWMGEINPTNARSNYNEKFKKRVTMTRDTSTSTVYMELSSLRSEDTAVYYCARIYYGNSFAHWGQGTLVTVSS
VL: DIVMTQSPDSLAVSLGERATINCKSSQSLLNAGNQKNYLTWYQQKPGQPPKLLIYWSSTRESGVPDRFSGSGSGTDFTLTISSLQAEDVAVYHCQNNYYYPLTFGGGTKLEIK
notes: Humanized monoclonal antibody; also called Anti-Claudin18.2, hu28.H1L2
B6: Anti-Claudin18.2/SIRPα bispecific antibody ES028-001 (bispecific antibody)
light (part 1 of 2): B5 VL
light (part 2 of 2): GGGGSGGGGSGGGGSQIVLTQSPAIMSASPGEKVTLTCSASSSVSSSYLYWYQQKPGSSPKLWIYSTSNLASGVPARFSGSGSGTSYSLTISSMEAEDAASYFCHQWSSYPYTFGGGTKLEIKGGGGSGGGGSGGGGSGGGGSEVQLQQSGAELVKPGASVKLSCTASGFNIKDYYMHWVKQRTEQGLEWIGRIDPEDGETKYAPKFQGKATITADTSSNTAYLQLSSLTSEDTAVYYCDRGLAYWGQGTLVTVSA
heavy: B5 VH
notes: not shown: CL; CH1-Fc
B7: Anti-Claudin18.2/SIRPα bispecific antibody ES028-005 (bispecific antibody)
light: B5 VL
heavy (part 1 of 2): B5 VH
heavy (part 2 of 2): B6 light (part 2 of 2)
notes: not shown: CL; CH1-Fc
B8: Anti-Claudin18.2/SIRPα bispecific antibody ES028-009 (bispecific antibody)
light (part 1 of 2): QIVLTQSPAIMSASPGEKVTLTCSASSSVSSSYLYWYQQKPGSSPKLWIYSTSNLASGVPARFSGSGSGTSYSLTISSMEAEDAASYFCHQWSSYPYTFGGGTKLEIK
light (part 2 of 2): GGGGSGGGGSGGGGSDIVMTQSPDSLAVSLGERATINCKSSQSLLNAGNQKNYLTWYQQKPGQPPKLLIYWSSTRESGVPDRFSGSGSGTDFTLTISSLQAEDVAVYHCQNNYYYPLTFGGGTKLEIKGGGGSGGGGSGGGGSGGGGSQVQLVQSGAEVKKPGASVKVSCKASGYTFTNWVHWVRQAPGQGLEWMGEINPTNARSNYNEKFKKRVTMTRDTSTSTVYMELSSLRSEDTAVYYCARIYYGNSFAHWGQGTLVTVSS
heavy: EVQLQQSGAELVKPGASVKLSCTASGFNIKDYYMHWVKQRTEQGLEWIGRIDPEDGETKYAPKFQGKATITADTSSNTAYLQLSSLTSEDTAVYYCDRGLAYWGQGTLVTVSA
notes: not shown: CL; CH1-Fc
B9: Anti-PDL1 antibody C570 (antibody, V domains shown)
VH: EVQLVESGGGLVQAGGSLRLSCAASGFTFSSHAMSWVRQAPGKGLEWVSDIDTSGTTTDYADSVKGRFTISRDNAKNTLYLQMNSLKPEDTAVYYCAKGPREATDIRSWGQGTQVTVSS
notes: Heavy chain antibody; also called Anti-PDL1, C570
B10: Anti-PDL1 antibody 570h3 (antibody, V domains shown)
VH: B9 VH with A14P, A75S, K87R, P88A, Q114T
notes: Humanized heavy chain antibody; also called Anti-PDL1, 570h3
B11: Anti-PDL1/SIRPα bispecific antibody ES019-025 (bispecific antibody)
light: B8 light (part 1 of 2)
heavy (part 1 of 2): EVQVVESGGGLVQSGGSLKLSCAGSGFTESAGFMVWHRQVPGKERELVALIATPSGSTNYADSVKGRFTISRDNGKNTVYLQMNSLKPEDTAVYYCNIRGYWGQGTLVTVSS
heavy (part 2 of 2): B8 heavy
notes: not shown: CL; linker; CH1-Fc
B12: Anti-PDL1/SIRPα bispecific antibody ES019-029 (bispecific antibody)
chain 1: B11 heavy (part 1 of 2)
chain 2: B8 heavy
chain 3: B8 light (part 1 of 2)
B13: Anti-PDL1/SIRPα bispecific antibody ES019-079 (bispecific antibody)
light: B8 light (part 1 of 2)
heavy (part 1 of 2): B9 VH
heavy (part 2 of 2): GGGGSGGGGSGGGGSEVQLQQSGAELVKPGASVKLSCTASGFNIKDYYMHWVKQRTEQGLEWIGRIDPEDGETKYAPKFQGKATITADTSSNTAYLQLSSLTSEDTAVYYCDRGLAYWGQGTLVTVSA
notes: not shown: CL; linker and Fc; CH1

molecular target: Full length human SIRPα v1 with beta-gal fragment (ED) at its C-terminal, in K562 cells (human, UniProt P78324 31-504); experiment: cell-based or functional assay
Sequence (P78324 31-504): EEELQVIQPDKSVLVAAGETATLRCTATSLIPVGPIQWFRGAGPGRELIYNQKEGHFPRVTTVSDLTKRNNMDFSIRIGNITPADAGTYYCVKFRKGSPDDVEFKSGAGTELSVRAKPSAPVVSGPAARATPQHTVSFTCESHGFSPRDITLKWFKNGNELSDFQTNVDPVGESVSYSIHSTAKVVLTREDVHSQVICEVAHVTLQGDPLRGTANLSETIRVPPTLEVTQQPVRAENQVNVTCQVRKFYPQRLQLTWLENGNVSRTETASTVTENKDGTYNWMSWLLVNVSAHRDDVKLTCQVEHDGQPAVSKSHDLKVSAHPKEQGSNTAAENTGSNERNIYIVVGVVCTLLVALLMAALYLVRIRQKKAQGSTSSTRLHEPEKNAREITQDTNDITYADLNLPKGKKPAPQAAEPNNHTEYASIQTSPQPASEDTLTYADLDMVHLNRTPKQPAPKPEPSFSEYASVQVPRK

IC50 (SHP-1 recruitment blocking) [nM] | TOP blocking (SHP-1 recruitment) [%] | Binder
0.1 | 86.3 | B1
0.1 | 78.8 | B2
0.19 | 84.5 | B3

molecular target: T2, Human SIRPα v2 (human); experiment: SPR (Biacore), 1:1 binding model
T2 construct: also called human SIRPα v2 (antigen of the Biacore assay)
Experimental: The humanized antibodies were characterized for binding affinity against human SIRPα v1, human SIRPα v2 using Surface Plasmon Resonance technology (Biacore system). The association and dissociation curves were fit with 1:1 binding model, and the Ka/Kd/KD values for each antibody were calculated.

Kd [nM] | koff [s⁻¹] | kon [M⁻¹ s⁻¹] | Binder
3.39 | 0.0056 | 1.65e+06 | B1
2.76 | 0.00392 | 1.42e+06 | B2

molecular target: T3, human SIRPα v1 ECD recombinant protein (human, UniProt P78324 31-373); experiment: competitive ELISA, plate-coated human SIRPα v1 ECD; blocked ligand: mFc tagged human CD47 ECD
T3 construct: extracellular domain; Coated on the ELISA plate
Experimental: (§1) Competitive ELISA assay was used to determine whether the purified chimeric antibodies can block CD47 and SIRPα interaction. Briefly, antibody and mFc tagged human CD47 ECD recombinant protein were co-incubated with ELISA microplate coated human SIRPα v1 ECD or human SIRPα v2 ECD recombinant protein. The concentration of soluble ECD of CD47 is 25 nM, and the concentration of soluble ECD of SIRPα is 20 nM. After washing, HRP labeled anti-mouse Fc 2nd antibody (Sigma) was added and incubated at 37° C. for 1 hour. Then, 100 μl/well of TMB solution (Biotechnology) was added. After incubation for 15 minutes at room temperature, the reaction was stopped by the addition of 50 μl of 1N HCl. OD 450 nm was read. Blocking ratio was determined by blockade of human SIRPα ECD recombinant protein binding to ELISA microplate coated human CD47 ECD recombinant protein. All antibodies as tested can block interaction between human CD47 and different human SIRPα variants.
(§2) The humanized antibodies were tested for the ability to block CD47 and SIRPα interaction with competitive ELISA assay (refer to methods described above).

T3 sequence (P78324 31-373): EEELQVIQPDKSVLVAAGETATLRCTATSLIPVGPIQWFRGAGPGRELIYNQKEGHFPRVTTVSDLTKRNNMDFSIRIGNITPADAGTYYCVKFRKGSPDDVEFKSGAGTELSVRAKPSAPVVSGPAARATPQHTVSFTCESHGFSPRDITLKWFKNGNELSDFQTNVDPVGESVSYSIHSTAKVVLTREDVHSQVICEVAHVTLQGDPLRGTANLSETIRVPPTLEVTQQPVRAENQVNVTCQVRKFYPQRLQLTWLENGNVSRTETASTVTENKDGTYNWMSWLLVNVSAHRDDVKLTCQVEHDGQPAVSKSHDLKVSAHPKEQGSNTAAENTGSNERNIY

IC50 [nM] | TOP blocking [%] | Binder
2.07 | 97.7 | B1
2.48 | 97.1 | B2
2.22 | 97.2 | B3

molecular target: T4, human SIRPα v1 on CHOK1 cells (human, UniProt P78324 31-504); experiment: FACS, CHOK1 cells stably expressing human SIRPα v1
T4 construct: whole, on cells; also called CHOK1-hSIRPα v1; cell surface human SIRPα v1
T4 sequence (P78324 31-504): as the sequence (P78324 31-504) above

EC50 [nM] | TOP MFI [MFI] | Binder
1.08 | 56400 | B1
1.05 | 59400 | B2
0.99 | 53800 | B3

molecular target: T5, human SIRPα v2 ECD recombinant protein (human); experiment: competitive ELISA, plate-coated human SIRPα v2 ECD; blocked ligand: mFc tagged human CD47 ECD
T5 construct: extracellular domain; Coated on the ELISA plate
Experimental: as §1, §2

IC50 [nM] | TOP blocking [%] | Binder
1.96 | 98.3 | B1
2.03 | 98.3 | B2
1.88 | 98.3 | B3

molecular target: T6, human SIRPα v2 on CHOK1 cells (human, UniProt P78324 31-504); experiment: FACS, CHOK1 cells stably expressing human SIRPα v2
T6 construct: whole, on cells; also called CHOK1-hSIRPα v2; cell surface human SIRPα v2
T6 sequence (P78324 other isoform, or with tags, fused parts or gaps limits assumed): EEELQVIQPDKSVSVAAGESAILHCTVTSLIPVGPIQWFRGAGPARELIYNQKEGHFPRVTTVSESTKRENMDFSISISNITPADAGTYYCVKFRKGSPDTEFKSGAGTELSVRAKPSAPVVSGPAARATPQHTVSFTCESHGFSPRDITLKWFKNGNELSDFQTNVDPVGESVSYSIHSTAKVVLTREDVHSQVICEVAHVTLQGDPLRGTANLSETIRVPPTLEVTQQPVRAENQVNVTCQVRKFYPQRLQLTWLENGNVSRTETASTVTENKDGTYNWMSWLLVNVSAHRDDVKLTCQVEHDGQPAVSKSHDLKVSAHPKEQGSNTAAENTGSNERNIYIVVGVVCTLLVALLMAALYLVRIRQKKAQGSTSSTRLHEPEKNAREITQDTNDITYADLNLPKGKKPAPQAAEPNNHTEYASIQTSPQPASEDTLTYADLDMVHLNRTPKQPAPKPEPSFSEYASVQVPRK

EC50 [nM] | TOP MFI [MFI] | Binder
0.87 | 46400 | B1
0.75 | 47300 | B2
0.62 | 39800 | B3

molecular target: T1, human Claudin18.2 protein (Octet assay); experiment: Octet; antibody on sensor, Claudin18.2 protein in solution
Experimental: (§3) The Anti-Claudin18.2/SIRPα bispecific protein were characterized for binding affinity against human Claudin18.2 or SIRPα using Octet assay (ForeBio) according to manufacturer's manual, separately. Briefly, the antibodies were coupled on sensors and then the sensors were dipped into Claudin18.2 or SIRPα protein gradients (start at 200 nM, with 2-fold dilution and totally 8 doses). Their binding responses were measured in real-time and results were fit globally.

Kd [nM] | koff [s⁻¹] | kon [M⁻¹ s⁻¹] | Binder
1.81 | 6.25e-05 | 34500 | B4
< 0.001 | < 1e-07 | 95800 | B5
< 0.001 | < 1e-07 | 105000 | B6
< 0.001 | < 1e-07 | 106000 | B7
< 0.001 | < 1e-07 | 21100 | B8

molecular target: human PDL1 protein (Octet assay) (human, UniProt Q9NZQ7 19-238); experiment: Octet; antibody on sensor, PDL1 protein in solution
Experimental: as §3, with “Anti-PDL1/SIRPα” for “Anti-Claudin18.2/SIRPα”, “PDL1” for “Claudin18.2 or SIRPα”

Sequence of human PDL1 protein (Octet assay) (Q9NZQ7 19-238 limits assumed): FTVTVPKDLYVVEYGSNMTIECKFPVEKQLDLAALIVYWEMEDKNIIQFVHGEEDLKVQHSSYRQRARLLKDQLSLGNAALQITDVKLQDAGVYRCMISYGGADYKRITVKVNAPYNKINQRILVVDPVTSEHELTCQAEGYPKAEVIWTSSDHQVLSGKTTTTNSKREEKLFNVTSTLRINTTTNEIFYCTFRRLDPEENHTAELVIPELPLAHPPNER

Kd [nM] | koff [s⁻¹] | kon [M⁻¹ s⁻¹] | Binder
0.374 | 0.000306 | 819000 | B9
0.198 | 9.29e-05 | 470000 | B10
3.81 | 0.00604 | 1.58e+06 | B11
1.23 | 0.00136 | 1.11e+06 | B12
0.0485 | 2.85e-05 | 588000 | B13
